Assays:
[1] = biological target: CmrT-K102A fused to the smbit or lgbit portion of split luciferase (C. difficile two-hybrid) (Clostridioides difficile R20291); experiment: split reporter (BiFC, NanoBiT); C. difficile bacterial two-hybrid with split luciferase (smbit, lgbit) from one ATc-inducible transcript; 200 ng/mL ATc for 1 h in BHIS-Tm10; Nano-Glo reagent; luminescence per OD600
[2] = biological target: CmrT fused to the smbit or lgbit portion of split luciferase (C. difficile two-hybrid) (Clostridioides difficile R20291); experiment: as above
[3] = biological target: T1, CmrR (Clostridioides difficile R20291) (UniProt A0A9R0CG09); experiment: EMSA; details: EMSA: 15 nM probe, 1x binding buffer 20 mM Tris pH 8, 1 mM EDTA, 10 mM MgCl2, 100 mM NaCl, 5% glycerol, plus half volume protein in His6 buffer (10 mM Tris …)
T1 sequence: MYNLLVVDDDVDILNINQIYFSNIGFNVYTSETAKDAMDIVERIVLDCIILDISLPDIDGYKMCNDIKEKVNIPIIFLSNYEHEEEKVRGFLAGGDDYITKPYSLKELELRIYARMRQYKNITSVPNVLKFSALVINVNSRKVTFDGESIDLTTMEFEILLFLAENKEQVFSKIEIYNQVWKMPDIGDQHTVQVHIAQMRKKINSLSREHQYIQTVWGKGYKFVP

[4] = biological target: CmrT-D9A fused to the smbit or lgbit portion of split luciferase (C. difficile two-hybrid) (Clostridioides difficile R20291); experiment: split reporter (BiFC, NanoBiT); C. difficile bacterial two-hybrid with split luciferase (smbit, lgbit) from one ATc-inducible transcript; 200 ng/mL ATc for 1 h in BHIS-Tm10; Nano-Glo reagent; luminescence per OD600

| Substance | binding [3] | other results |
| --- | --- | --- |
| CmrT-K102A fused to the smbit or lgbit portion of split luciferase (C. difficile two-hybrid) (natural protein) |  | log10 fold change of luciferase signal against wild-type CmrT (log10 fold change) [1]: -0.64 |
| CmrT fused to the smbit or lgbit portion of split luciferase (C. difficile two-hybrid) (natural protein) |  | log10 fold luciferase activity over the negative control [2]: 3.6 log10 fold |
| CTAGCCAATAGACAAGTTTCTAGAAAAATAATAAATTTATAAGTGAAAATGACTTTAAGCTCCATTCTCCAACAATCGGAGACTTTAATTAGTATTTAATAATAAATCTTAATGTTCAATACAATATTCAAGAATTGTTCAAAAATACTTAAG (double strand) [probe 9 (cmr switch in other orientation than probe 6)] | binds |  |
| ATTCAAGAATTGTTCAAAAATACTTAAGTATTATAGTCTAGTTTGTAAAGATATTATAAAATAATAATACTAGTTATATATGAAAATAAAACATTATAATTTGTAATAATTATAAAACTTGAGATTATGATTAAAATACCTTTGAATGGAGTGGTGTAATGTATAATTTACTGGTTGTAGATGATGATGTTG (double strand) [probe 4 (TSS4, 192 bp)] | binds more weakly |  |
| TTGCACCACTAACTCCATATATCTCCAGATGCCCAATAATAAGATATACTTCTCAGTTTCTAAAATATTTTTATTAAAAATCTTTTATATATTTTCATAAATTTCTTTTTTATTCTAACATTGTAATATTATTTTGTCAATATTTCCATATTTTTAGATATAAGATACTAAAATACCTATTTTATCTAAAGATATTTATATTTCTACATTCAATAATAGACAATACCCTGCAAGTTAAAGCATC (double strand) [probe 1 (upstream of TSS1)] | no binding |  |
| CmrT-D9A fused to the smbit or lgbit portion of split luciferase (C. difficile two-hybrid) (natural protein) |  | log10 fold change of luciferase signal against wild-type CmrT (log10 fold change) [4]: -1.27 |
| GTATTTAATAATAAATCTTAATGTTCAATACAATATTCAAGAATTGTTCAAAAATACTTAAGTATTATAGTCTAGTTTGTAAAGATATTATAAAATAATAATACTAGTTATATATGAAAATAAAACATTATAATTTGTAATAATTATAAAACTTGAGATTATGATTAAAATACCTTTGAATGGAGTGGTGTAATGTATAATTTACTGGTTGTAGATGATGATGTTG (double strand) [probe 7 (TSS4, 226 bp)] | binds |  |
| GCCAAAATTTCACCTATCAATAAAAATCTTAACGACTAATACTCTTATTTTCAAATTTTGCAACATTTTTGTTAATTTTAAAGCAAAAAAAGACTATGCAATATAAAAATTATATTCATAGCCGGTTGCACCACTAACTCCATATATCTCC (double strand) [probe 2] | no binding |  |
